The results in this text go back to patent publication US20240117334.

The data set concerns the target Human Factor B.

Residue numbers refer to the chain shown, from its start. Names and notes keep the numbering of the source.

Sequence of Human Factor B (chain, as listed by the source): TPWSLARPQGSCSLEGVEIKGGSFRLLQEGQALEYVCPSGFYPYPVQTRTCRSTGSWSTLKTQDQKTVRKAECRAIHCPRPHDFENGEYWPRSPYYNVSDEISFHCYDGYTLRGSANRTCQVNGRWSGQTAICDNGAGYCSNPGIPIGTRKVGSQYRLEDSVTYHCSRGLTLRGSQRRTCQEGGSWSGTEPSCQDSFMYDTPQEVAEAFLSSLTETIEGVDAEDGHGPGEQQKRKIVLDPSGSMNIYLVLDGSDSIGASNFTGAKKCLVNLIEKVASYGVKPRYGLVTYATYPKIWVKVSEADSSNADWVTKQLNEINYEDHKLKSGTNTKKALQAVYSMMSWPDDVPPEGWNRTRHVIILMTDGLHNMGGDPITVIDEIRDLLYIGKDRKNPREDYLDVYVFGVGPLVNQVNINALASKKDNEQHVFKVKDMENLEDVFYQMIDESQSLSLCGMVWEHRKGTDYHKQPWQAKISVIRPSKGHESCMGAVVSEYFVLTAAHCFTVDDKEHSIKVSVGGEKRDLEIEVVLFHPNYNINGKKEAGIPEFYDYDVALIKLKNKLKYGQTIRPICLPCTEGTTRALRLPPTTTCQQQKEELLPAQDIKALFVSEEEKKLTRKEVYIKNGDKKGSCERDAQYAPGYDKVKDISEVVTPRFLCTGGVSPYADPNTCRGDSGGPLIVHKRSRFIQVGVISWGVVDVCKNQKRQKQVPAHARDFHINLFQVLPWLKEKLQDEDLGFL

B1: MTSP-1 F97E/K224N/F99L/D217I/C122S/C[17]S/C[19]S (protein)
chain: VVGGTDADEGEWPWQVSLHALGQGHICGASLISPNWLVSAAHCYIDDRGFRYSDPTQWTAFLGLHDQSQRSAPGVQERRLKRIISHPFFNDETLDYDIALLELEKPAEYSSMVRPISLPDASHVFPAGKAIWVTGWGHTQYGGTGALILQKGEIRVINQTTCENLLPQQITPRMMCVGFLSGGVDSCQGDSGGPLSSVEADGRIFQAGVVSWGIGCAQRNNPGVYTRLPLFRDWIKENTGV
As to B1, the “Factor B add-back hemolysis” value was “is able to inhibit hemolysis”.

B2: chymase C22S/K40L/F41K/L99N/F173Y/D175N/S218L/A226R (protein)
chain: IIGGTESKPHSRPYMAYLEIVTSNGPSLKCGGFLIRRNFVLTAAHCAGRSITVTLGAHNITEEEDTWQKLEVIKQFRHPKYNTSTNHHDIMLLKLKEKASLTLAVGTLPFPSQFNFVPPGRMCRVAGWGRTGVLKPGSDTLQEVKLRLMDPQACSHYRNFDHNLQLCVGNPRKTKSAFKGDSGGPLLCAGVAQGIVSYGRLDAKPPRVFTRISHYRPWINQILQAN
As for B2, the “Factor B cleavage, Coomassie gel” value is on record as “each lot showed the ability of the engineered proteases to cleave Factor B”.

B3: chymase C22S/P38Q/K40M/F41R/D175N/V213Q/S218V/A226R/F228A (protein)
chain: B2 chain with P26Q, L28M, K29R, N86L, Y157F, V196Q, L201V, F209A
For B3, the “Factor B cleavage, Coomassie gel” value is recorded as “each lot showed the ability of the engineered proteases to cleave Factor B”.

B4: chymase C22S/P38Q/K40L/F41R/L99H/V138I/F173Y/D175S/A190S/V213A/S218I/A226R (protein)
chain: B2 chain with P26Q, K29R, N86H, V125I, N159S, A177S, V196A, L201I
On to B4, for which the “Factor B cleavage, Coomassie gel” value was “each lot showed the ability of the engineered proteases to cleave Factor B”.

B5: chymase C22S/P38Q/K40M/F41R/V138I/F173Y/D175R/A190S/V213A/S218V/A226R (protein)
chain: B2 chain with P26Q, L28M, K29R, N86L, V125I, N159R, A177S, V196A, L201V
Take B5: the “Factor B cleavage” value is listed as “show high Factor B cleavage activity”.

B6: chymase C22S/P38Q/K40L/F41R/V138I/F173Y/D175N/A190S/V213A/S218V/A226R (protein)
chain: B2 chain with P26Q, K29R, N86L, V125I, A177S, V196A, L201V
For B6, the “Factor B cleavage” value is given as “show high Factor B cleavage activity”.

B7: chymase C22S/P38Q/K40M/F41R/L99M/F173Y/D175N/V213Q/S218V/A226R/F228A (protein)
chain: B2 chain with P26Q, L28M, K29R, N86M, V196Q, L201V, F209A
Consider B7, for which the “Factor B cleavage, Coomassie gel” value was “each lot showed the ability of the engineered proteases to cleave Factor B”.
